From patent publication US20160113911A1, “METHODS AND COMPOSITIONS FOR THE TREATMENT OF CANCER” (THE GENERAL HOSPITAL CORPORATION, priority 2013, published 2016)

B1: KDM4A WT: wild type KDM4A (major allele E482) (protein)
chain: MASESETLNPSARIMTFYPTMEEFRNFSRYIAYIESQGAHRAGLAKVVPPKEWKPRASYDDIDDLVIPAPIQQLVTGQSGLFTQYNIQKKAMTVREFRKIANSDKYCTPRYSEFEELERKYWKNLTFNPPIYGADVNGTLYEKHVDEWNIGRLRTILDLVEKESGITIEGVNTPYLYFGMWKTSFAWHTEDMDLYSINYLHFGEPKSWYSVPPEHGKRLERLAKGFFPGSAQSCEAFLRHKMTLISPLMLKKYGIPFDKVTQEAGEFMITFPYGYHAGFNHGFNCAESTNFATRRWIEYGKQAVLCSCRKDMVKISMDVFVRKFQPERYKLWKAGKDNTVIDHTLPTPEAAEFLKESELPPRAGNEEECPEEDMEGVEDGEEGDLKTSLAKHRIGTKRHRVCLEIPQEVSQSELFPKEDLSSEQYEMTECPAALAPVRPTHSSVRQVEDGLTFPDYSDSTEVKFEELKNVKLEEEDEEEEQEAAALDLSVNPASVGGRLVFSGSKKKSSSSLGSGSSRDSISSDSETSEPLSCRAQGQTGVLTVHSYAKGDGRVTVGEPCTRKKGSAARSFSERELAEVADEYMFSLEENKKSKGRRQPLSKLPRHHPLVLQECVSDDETSEQLTPEEEAEETEAWAKPLSQLWQNRPPNFEAEKEFNETMAQQAPHCAVCMIFQTYHQVEFGGFNQNCGNASDLAPQKQRTKPLIPEMCFTSTGCSTDINLSTPYLEEDGTSILVSCKKCSVRVHASCYGVPPAKASEDWMCSRCSANALEEDCCLCSLRGGALQRANDDRWVHVSCAVAILEARFVNIAERSPVDVSKIPLPRFKLKCIFCKKRRKRTAGCCVQCSHGRCPTAFHVSCAQAAGVMMQPDDWPFVVFITCFRHKIPNLERAKGALQSITAGQKVISKHKNGRFYQCEVVRLTTETFYEVNFDDGSFSDNLYPEDIVSQDCLQFGPPAEGEVVQVRWTDGQVYGAKFVASHPIQMYQVEFEDGSQLVVKRDDVYTLDEELPKRVKSRLSVASDMRFNEIFTEKEVKQEKKRQRVINSRYREDYIEPALYRAIME
modifications: left off: large carriers
B2: H188A: catalytic mutant of KDM4A (protein, UniProt O75164 2-1064, looked up, variant H188A)
Lysine-specific demethylase 4A: ASESETLNPSARIMTFYPTMEEFRNFSRYIAYIESQGAHRAGLAKVVPPKEWKPRASYDDIDDLVIPAPIQQLVTGQSGLFTQYNIQKKAMTVREFRKIANSDKYCTPRYSEFEELERKYWKNLTFNPPIYGADVNGTLYEKHVDEWNIGRLRTILDLVEKESGITIEGVNTPYLYFGMWKTSFAWATEDMDLYSINYLHFGEPKSWYSVPPEHGKRLERLAKGFFPGSAQSCEAFLRHKMTLISPLMLKKYGIPFDKVTQEAGEFMITFPYGYHAGFNHGFNCAESTNFATRRWIEYGKQAVLCSCRKDMVKISMDVFVRKFQPERYKLWKAGKDNTVIDHTLPTPEAAEFLKESELPPRAGNEEECPEEDMEGVEDGEEGDLKTSLAKHRIGTKRHRVCLEIPQEVSQSELFPKEDLSSEQYEMTECPAALAPVRPTHSSVRQVEDGLTFPDYSDSTEVKFEELKNVKLEEEDEEEEQAAAALDLSVNPASVGGRLVFSGSKKKSSSSLGSGSSRDSISSDSETSEPLSCRAQGQTGVLTVHSYAKGDGRVTVGEPCTRKKGSAARSFSERELAEVADEYMFSLEENKKSKGRRQPLSKLPRHHPLVLQECVSDDETSEQLTPEEEAEETEAWAKPLSQLWQNRPPNFEAEKEFNETMAQQAPHCAVCMIFQTYHQVEFGGFNQNCGNASDLAPQKQRTKPLIPEMCFTSTGCSTDINLSTPYLEEDGTSILVSCKKCSVRVHASCYGVPPAKASEDWMCSRCSANALEEDCCLCSLRGGALQRANDDRWVHVSCAVAILEARFVNIAERSPVDVSKIPLPRFKLKCIFCKKRRKRTAGCCVQCSHGRCPTAFHVSCAQAAGVMMQPDDWPFVVFITCFRHKIPNLERAKGALQSITAGQKVISKHKNGRFYQCEVVRLTTETFYEVNFDDGSFSDNLYPEDIVSQDCLQFGPPAEGEVVQVRWTDGQVYGAKFVASHPIQMYQVEFEDGSQLVVKRDDVYTLDEELPKRVKSRLSVASDMRFNEIFTEKEVKQEKKRQRVINSRYREDYIEPALYRAIME
B3: 2A-R1025C*: KDM4A mutation (protein, UniProt O75164 2-1064, looked up, variant R1025C)
Lysine-specific demethylase 4A: ASESETLNPSARIMTFYPTMEEFRNFSRYIAYIESQGAHRAGLAKVVPPKEWKPRASYDDIDDLVIPAPIQQLVTGQSGLFTQYNIQKKAMTVREFRKIANSDKYCTPRYSEFEELERKYWKNLTFNPPIYGADVNGTLYEKHVDEWNIGRLRTILDLVEKESGITIEGVNTPYLYFGMWKTSFAWHTEDMDLYSINYLHFGEPKSWYSVPPEHGKRLERLAKGFFPGSAQSCEAFLRHKMTLISPLMLKKYGIPFDKVTQEAGEFMITFPYGYHAGFNHGFNCAESTNFATRRWIEYGKQAVLCSCRKDMVKISMDVFVRKFQPERYKLWKAGKDNTVIDHTLPTPEAAEFLKESELPPRAGNEEECPEEDMEGVEDGEEGDLKTSLAKHRIGTKRHRVCLEIPQEVSQSELFPKEDLSSEQYEMTECPAALAPVRPTHSSVRQVEDGLTFPDYSDSTEVKFEELKNVKLEEEDEEEEQAAAALDLSVNPASVGGRLVFSGSKKKSSSSLGSGSSRDSISSDSETSEPLSCRAQGQTGVLTVHSYAKGDGRVTVGEPCTRKKGSAARSFSERELAEVADEYMFSLEENKKSKGRRQPLSKLPRHHPLVLQECVSDDETSEQLTPEEEAEETEAWAKPLSQLWQNRPPNFEAEKEFNETMAQQAPHCAVCMIFQTYHQVEFGGFNQNCGNASDLAPQKQRTKPLIPEMCFTSTGCSTDINLSTPYLEEDGTSILVSCKKCSVRVHASCYGVPPAKASEDWMCSRCSANALEEDCCLCSLRGGALQRANDDRWVHVSCAVAILEARFVNIAERSPVDVSKIPLPRFKLKCIFCKKRRKRTAGCCVQCSHGRCPTAFHVSCAQAAGVMMQPDDWPFVVFITCFRHKIPNLERAKGALQSITAGQKVISKHKNGRFYQCEVVRLTTETFYEVNFDDGSFSDNLYPEDIVSQDCLQFGPPAEGEVVQVRWTDGQVYGAKFVASHPIQMYQVEFEDGSQLVVKRDDVYTLDEELPKRVKSRLSVASDMCFNEIFTEKEVKQEKKRQRVINSRYREDYIEPALYRAIME

Assays:
[1] = test system: cells depleted of KDM4A (shA10); experiment: Rapamycin sensitivity of KDM4A-depleted (shA10) cells transfected with wild-type or mutant KDM4A; format: cell-based; details: shA10 depletion background
Description: Cells were depleted of KDM4A (shA10) and transfected with wild-type (WT) or mutant KDM4A. […] This differed from WT expression in the depletion background, which was less sensitive. […]
The effect of KMD4A mutations on drug sensitivity was examined by depleting cells of KDM4A (shA10) and then transfecting with wild-type or mutant KDM4A. The sensitivity of the cells to rapamycin was then determined. […] This differed from WT expression in the depletion background, which was less sensitive.

HEK 293T cells = experiment: Monitored cell proliferation assay (xCELLigence growth curves, doubling time); format: cell-based, human
Description: Seventy two hours post transfection 1×10^4 HEK 293T cells were seeded per well of a 96 well plate, and then treated after 24h. Cell proliferation was monitored with an xCELLigence system (Roche) (Vistejnova et al., 2009).

H3K36me3 = experiment: H3K36 demethylase activity of KDM4A variants in transfected cells (immunofluorescence); format: cell-based; parameters: key: + indicates active; − indicates inactive; +/− indicates partial acitivty; details: KDM4A mutations
H3K9me3 = experiment: H3K9 demethylase activity of KDM4 variants in transfected cells; format: cell-based; parameters: key: + indicates active; − indicates inactive; +/− indicates partial acitivty; details: KDM4A mutations

Row | Molecule | sensitivity of cells to rapamycin [1] | rescue of increased sensitivity to AZD8055 due to KDM4A depletion (doubling time 5h-35h) (HEK 293T cells; shRNA KDM4A plus non targetable GFP-KDM4A constructs) | rescue of increased sensitivity to Rapamycin of KDM4A depleted cells (doubling time 5h-35h) (HEK 293T cells; shRNA KDM4A plus shRNA-resistant GFP-KDM4A constructs) | H3k36 Demethylase Activity (H3K36me3) | H3k9 Demethylase Activity (H3K9me3)
1 | B1 | reduced the sensitivity of the cells | rescues | rescues | – | –
2 | B2 | did not reduce drug sensitivity | – | – | – | –
3 | B3 | equally as sensitive as KDM4A/JMJD2A depletion | – | – | + | +
